According to patent publication US8021646B2, “Compositions and methods for magnetic resonance imaging contrast agents” (Northwestern University, priority 2006, dated 2011):
No end group written: not given here.

Test: Solubility of protein polymers
Format: physicochemical
From the text: In order to both increase solubility of the protein backbone in organic solvents and to include a better enzymatic transglutaminase substrate for conjugation to chelators, a phenylalanine amino acid (F) will be added to the random coil backbone, resulting in GFKAGTGSA (SEQ ID NO: 4). It is contemplated that this protein structure will not form a particular secondary structure, behaving as a random coil in an aqueous solution. As indicated by the monomer sequence, the lysines are spaced every nine amino acids, which is still an optimal interval for a high concentration of Gd chelators, but still allowing enough room to prevent steric hindrance. […] It is contemplated that proteins including various amounts of leucines, a hydrophobic residue that is high on the hydropathy scale, provides novel protein polymers useful in the present invention that are both water and organo-soluble.
However, a protein soluble in organic solvents would allow coupling in N-methyl-pyrrolidone (NMP) using a peptide coupling agent such as Bromo-tris-pyrrolidinophosphoniumhexafluorophosphate (PyBroP) or 2-(IH-7-Azabenzotriazol-1-yl)-1,1,3,3-tetramethyluroniumhexafluorophosphate Methanaminium (HATU) in diisopropylethylamine (DIEA). Two equivalents of the chelator and at least 2:1 equivalents of the peptide-coupling agent will be used for each lysine site. […]

Substance: GFKAGTGSA: protein polymer with monomer GFKAGTGSA (SEQ ID NO: 4), phenylalanine added to the random coil backbone (also: repeated monomer polymer)
- solubility in water: only soluble in water at high pH
- solubility in organics (organic solvents): not soluble in organics
